This is an account of results in US20230340111A1 (published 2023).

Residue numbers refer to the chain shown, from its start.

Test [1] deals with human FOLR1 recombinant protein (extracellular domain of human folate receptor alpha) (human) (UniProt P15328). The experiment in a line: ELISA; coated recombinant protein, HA-tagged VHH in bacterial extract, anti-HA detection; A405 antigen well / blank well. (ELISA stands for enzyme-linked immunosorbent assay.)
The target in test [2] is T1, human folate receptor beta (FOLR2), extracellular domain, recombinant (human, UniProt P14207 17-228, limits assumed).
T1 construct: extracellular domain; Bought protein; also called human FOLR2
T1 sequence (P14207 17-228 limits assumed): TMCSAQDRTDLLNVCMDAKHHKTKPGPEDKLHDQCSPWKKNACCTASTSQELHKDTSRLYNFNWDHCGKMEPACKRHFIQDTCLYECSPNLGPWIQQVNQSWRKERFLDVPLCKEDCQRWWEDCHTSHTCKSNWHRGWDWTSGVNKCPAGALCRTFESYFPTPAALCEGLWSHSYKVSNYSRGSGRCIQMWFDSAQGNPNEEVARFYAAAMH
The experiment in a line: ELISA, coated recombinant protein, HA-tagged VHH in bacterial extract. The protocol: (§1) The day before, 0.1 µg recombinant protein at a concentration of 1 µg/mL in 100 mM NaHCO3, pH 8.2 was coated in a 96-well ELISA plate (Nunc MaxiSorp). Per VHH clone also a blank coated well was foreseen (only buffer). The wells were overcoated with protein-free T20 (PBS) blocking buffer (Pierce). After washing with PBS, pH7.4, 0.05% Tween, VHH-containing bacterial extract was added to every well. Binding of HA-tagged VHHs was detected by using mouse anti-HA.11 epitope tag (clone 16B12, Biolegend) as the primary Ab and goat anti-mouse IgG (whole molecule) alkaline phosphatase conjugate (Sigma-Aldrich) as the secondary Ab, with thorough washing with PBS, pH 7.4, 0.05% Tween in between. Signals were developed using phosphatase substrate (Sigma-Aldrich) in AP blot buffer (100 mM NaCl, 50 mM MgCl2, 100 mM Tris, pH 9.5). The absorbance was determined at 405 nm using an absorbance microplate reader (Molecular Devices). Per clone the ratio was determined between the absorbance in the antigen-coated well versus the well without antigen.

For test [3], the target named is T2, human folate receptor gamma (FOLR3), recombinant (human, UniProt P41439 23-245, limits assumed).
T2 construct: extracellular domain; Bought protein; also called human FOLR3
T2 sequence (P41439 23-245 limits assumed): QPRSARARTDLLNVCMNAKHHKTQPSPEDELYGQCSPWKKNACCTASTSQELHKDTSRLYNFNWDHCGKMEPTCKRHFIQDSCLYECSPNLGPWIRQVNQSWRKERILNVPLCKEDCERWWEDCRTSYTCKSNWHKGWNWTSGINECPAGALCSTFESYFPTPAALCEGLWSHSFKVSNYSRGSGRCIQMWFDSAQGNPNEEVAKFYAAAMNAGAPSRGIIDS
Described as above. As for the experimental part:
as §1

Test [4] concerns the target T3, murine FOLR1, extracellular domain, recombinant (murine, UniProt P35846 25-232).
T3 construct: extracellular domain; Bought protein; also called mouse FOLR1
Described as above. As for the experimental part: as §1

For test [5], the target named is T1, human folate receptor beta (FOLR2), …. The experiment in a line: ELISA; coated recombinant protein, HA-tagged VHH in bacterial extract, anti-HA detection; A405 antigen well / blank well. The protocol: as §1
The target of test [6] is T2, human folate receptor gamma (FOLR3), …. The description is as above. The protocol: as §1
Test [7] addresses T3, murine FOLR1, extracellular domain, …. The test is described as above. As for the experimental part: as §1
In test [8] the target is T4, human FOLR1 recombinant protein (extracellular domain of human folate receptor alpha) (human, UniProt P15328 25-233).
T4 construct: Bought recombinant protein (Sino Biological); also called hFOLR1; FR-alpha
T4 sequence (P15328 25-233): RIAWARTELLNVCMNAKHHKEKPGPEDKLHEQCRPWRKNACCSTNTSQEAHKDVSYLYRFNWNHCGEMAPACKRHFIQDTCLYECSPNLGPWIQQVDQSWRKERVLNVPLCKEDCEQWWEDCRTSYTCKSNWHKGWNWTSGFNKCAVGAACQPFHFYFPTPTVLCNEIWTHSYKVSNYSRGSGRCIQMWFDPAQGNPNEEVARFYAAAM
The experiment in a line: SPR dual injection on immobilized human FOLR1, 250 nM; competitor (1st VHH, saturating) A2; by the legend the value is of the 2nd VHH. As for the experimental part:
(§2) Competitive binding characteristics of His₆-tagged VHHs were determined via surface plasmon resonance with a Biacore T200 instrument (GE Healthcare). Immobilization of human FOLR1 recombinant protein (Sino Biological) and regeneration were performed as described below for kinetic measurements.
(§3) Table 8: Side-by-side comparison of His₆-tagged VHHs A1, A2, A3, A4, A5 for binding to human FOLR1 to identify competitive binding characteristics. Binding was measured in surface plasmon resonance with immobilized human FOLR1 recombinant protein as the ligand. After saturation of the ligand with VHH 1 an equimolar mixture of VHH 1 and VHH 2 was injected. Percentages express the loss in response level of VHH 2, relative to the response when VHH 2 was injected alone.

The target of test [9] is T4, human FOLR1 recombinant protein …. The experiment in a line: SPR dual injection on immobilized human FOLR1, 250 nM; competitor (1st VHH, saturating) A1; by the legend the value is of the 2nd VHH. The protocol:
as §2, §3

For test [10] the target is unchanged. The experiment in a line: SPR (Biacore T200), human FOLR1 immobilized on CM5, His6-tagged VHH as analyte, 1:1 fit. The protocol:
The kinetic parameters of antigen binding by purified VHHs were determined via surface plasmon resonance with a Biacore T200 instrument (GE Healthcare). The human FOLR1 recombinant protein (Sino Biological) was immobilized in 10 mM sodium acetate, pH 5.5 on a CM5 chip (GE Healthcare) via amine coupling chemistry to 500 RU. His₆-tagged VHHs were analyzed in a twofold serial dilution in HBS (125 nM-0.488 nM for VHHs A4 and A5; 10 nM-0.039 nM for VHHs A1, A2 and A3) with an analyte flow rate of 30 µl/min. The association phase took 180 s (A4-A5) or 450 s (A1-A3) and the dissociation phase 600 s (A4-A5) or 900 s (A1-A3). Regeneration was done by a single injection of 50 mM glycine-HCl, pH 2.5, 2 M MgCl₂ for 30 s at 30 µl/min, followed by 120 s stabilization. Binding curves were fitted using a ‘1:1 (antigen:analyte)’ binding model in Biacore T200 evaluation software.
On the technique in general: Surface plasmon resonance follows binding to a sensor surface in real time, without labels.

For test [11] the target is unchanged. The experiment in a line: SPR dual injection on immobilized human FOLR1, 250 nM; competitor (1st VHH, saturating) A3; by the legend the value is of the 2nd VHH. The protocol:
as §2, §3

Test [12] shares this target. The experiment in a line: SPR dual injection on immobilized human FOLR1, 250 nM; competitor (1st VHH, saturating) A4; by the legend the value is of the 2nd VHH. As for the experimental part: as §2, §3
For test [13] the target is unchanged. The experiment in a line: SPR (Biacore T200), single cycle kinetics, His6-tagged VHH immobilized on CM5, human FOLR1 as analyte, 1:1 fit. As for the experimental part: The kinetic parameters of antigen binding for purified VHHs A1, A2 and A3 were determined via surface plasmon resonance with a Biacore T200 instrument (GE Healthcare) using single cycle kinetics mode. While example 4d provides a first and preferred way of assessing the kinetic parameters of antigen binding for VHHs using surface plasmon resonance, this example provides an alternative setup for using surface plasmon resonance to assess the kinetic parameters of antigen binding, inverting the analyte and immobilized ligand. His₆-tagged VHH A1, A2 or A3 was immobilized in 10 mM sodium acetate, pH 5.5 on a CM5 chip (GE Healthcare) via amine coupling chemistry to 160 RU. The human FOLR1 recombinant protein (Sino Biological) was analyzed in a threefold serial dilution in HBS (38.5 nM-0.47 nM) with an analyte flow rate of 30 µl/min. The association phase took 180 s for every concentration and the dissociation phase 900 s. Regeneration was done by a single injection of 50 mM glycine-HCl, pH 2.5, 2 M MgCl2 for 30 s at 30 µl/min, followed by 120 s stabilization. Binding curves were fitted using a ‘1:1 (antigen:analyte)’ binding model in Biacore T200 evaluation software.

For test [14] the target is unchanged. The experiment in a line: SPR dual injection on immobilized human FOLR1, 250 nM; competitor (1st VHH, saturating) A5; by the legend the value is of the 2nd VHH. The protocol: as §2, §3

human FOLR1 recombinant protein (extracellular domain of human folate receptor alpha) (human), sequence (P15328 25-233): as above
T3 sequence (P35846 25-232 limits assumed): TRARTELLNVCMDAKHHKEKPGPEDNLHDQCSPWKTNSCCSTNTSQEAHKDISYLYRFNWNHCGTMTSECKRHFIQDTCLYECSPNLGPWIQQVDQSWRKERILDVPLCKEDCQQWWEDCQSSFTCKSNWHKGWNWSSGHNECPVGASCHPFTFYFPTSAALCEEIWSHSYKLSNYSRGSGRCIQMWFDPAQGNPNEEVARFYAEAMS

B1: HA-tagged variant of VHH A3 (VHH)
VHH: QVQLQESGGGLVQAGGSLRLSCGVSGNMFSMNLMGWYRQPPGKERDWVAVITKDGSTNYADSVKGRFTISRDNAKNTVSLQMNSLKPEDTAVYYCNVQDGSGWIRAWGWDWGQGTQVTVSS
notes: Used as VHH-containing bacterial (periplasmic) extract in ELISA; also called A3 HA-tag
For the molecule B1, the signal-to-background ratio in test [1] was above 20; in test [5], around 1; in [6], around 1; in test [7] it was around 1. Also, the binding result in test [2], in [3] and in test [4] was “no binding” each time.

B2: HA-tagged variant of VHH A5 (VHH)
VHH: B1 VHH with M28I, D46E, V50L, A60E, V97A
notes: Used as VHH-containing bacterial (periplasmic) extract in ELISA; also called A5 HA-tag
In the case of B2, the signal-to-background ratio was above 20 in test [1], around 1 in [5], around 1 in test [6] and around 1 in [7]. For the same molecule, the binding result in [2], in [3] and in [4] was “no binding” throughout.

B3: His6-tagged variant of VHH A5 (VHH)
VHH: B1 VHH with Q1D, Q5V, M28I, D46E, V50L, A60E, V97A
notes: Purified, unlabelled; also called A5 His6-tag
As usually defined, the Kd is the equilibrium constant for the complex coming apart. What is called koff is the first-order rate constant of dissociation. The kon is the second-order rate constant of association. Take B3: the “loss in response level of VHH 2 relative to VHH 2 injected alone” value is -99% in [8], -96% in [9], -100% in test [11] and -98% in test [12]. In addition, the Kd in test [10] turned out to be 14 nM. The koff in test [10] is 0.018 s⁻¹. The kon in test [10] was 1.3e+06 M⁻¹ s⁻¹.

B4: HA-tagged variant of VHH A1 (VHH)
VHH: QVQLQESGGGLVQPGGSLRLSCAASESIFSRNHMSWYRQAPGKQRELAAIITSDGNTNYPDSVKGRFTISRDNAKNTVYLQMNSLKPEDTAVYYCNTFGRSVAGFYDYWGQGTQVTVSS
notes: Used as VHH-containing bacterial (periplasmic) extract in ELISA; also called A1 HA-tag
On to B4, for which the signal-to-background ratio is above 20 in test [1], around 1 in [5], around 1 in [6] and around 1 in [7]. Besides, the binding result in test [2], in test [3] and in [4] was “no binding” in each case.

B5: His6-tagged variant of VHH A1 (VHH)
VHH: B4 VHH with Q1D, Q5V
notes: Purified, unlabelled; also called A1 His6-tag
For the molecule B5, the “loss in response level of VHH 2 relative to VHH 2 injected alone” value was -98% in test [8], -100% in test [11], -91% in [14] and -98% in test [12]. Also, the Kd is 0.04 nM in test [10] and 0.44 nM in test [13]. The results for the off-rate (koff) in test [10] and in test [13] were 0.00014 s⁻¹ and 0.00019 s⁻¹, respectively. In addition, the kon in [10] worked out at 3.6e+06 M⁻¹ s⁻¹; in test [13], 430000 M⁻¹ s⁻¹.

B6: HA-tagged variant of VHH A4 (VHH)
VHH: QVQLQESGGGLARAGGSLRLSCAASGRAFSSTYAMGWFRQAPGKEREFVADINWSEGSPMYIDSVKDRFTISRDNARNSLYLQMNSLKSEDTAVYYCAARRFGQGYEYWGQGTQVTVSS
notes: Used as VHH-containing bacterial (periplasmic) extract in ELISA; also called A4 HA-tag
For the molecule B6, the signal-to-background ratio is above 20 in test [1], around 1 in test [5], around 1 in test [6] and around 1 in [7]. Besides, the binding result in [2], in test [3] and in test [4] was “no binding” in each case.

B7: His6-tagged variant of VHH A4 (VHH)
VHH: B6 VHH with Q1D, Q5V
notes: Purified, unlabelled; also called A4 His6-tag
Consider B7, for which the “loss in response level of VHH 2 relative to VHH 2 injected alone” value in test [8] was -99%; in test [9] it was -97%; in test [11] it was -100%; in test [14], -91%. In addition, the Kd in test [10] came out at 4.3 nM. Moreover, the koff in test [10] came to 0.0057 s⁻¹. Also, in test [10], the kon came out at 1.3e+06 M⁻¹ s⁻¹.
